From paper doi:10.1101/2023.01.21.525003

How the values were obtained:
Test in all cases: FRET or BRET
[1] = target: Gluc-LHCGRv4 (Gaussia luciferase fused to the N-terminus of the luteinizing hormone/chorionic gonadotropin receptor) (human) (UniProt P22888)
[2] = target: Gluc-LHCGR^Cys131Arg (human) (UniProt P22888)
[3] = target: Gluc-LHCGR^Glu354Lys (human) (UniProt P22888)
[4] = target: Gluc-LHCGR^Ile152Thr (human) (UniProt P22888)
Gluc-LHCGR^Ile152Thr (human), sequence (P22888 27-699 I152T): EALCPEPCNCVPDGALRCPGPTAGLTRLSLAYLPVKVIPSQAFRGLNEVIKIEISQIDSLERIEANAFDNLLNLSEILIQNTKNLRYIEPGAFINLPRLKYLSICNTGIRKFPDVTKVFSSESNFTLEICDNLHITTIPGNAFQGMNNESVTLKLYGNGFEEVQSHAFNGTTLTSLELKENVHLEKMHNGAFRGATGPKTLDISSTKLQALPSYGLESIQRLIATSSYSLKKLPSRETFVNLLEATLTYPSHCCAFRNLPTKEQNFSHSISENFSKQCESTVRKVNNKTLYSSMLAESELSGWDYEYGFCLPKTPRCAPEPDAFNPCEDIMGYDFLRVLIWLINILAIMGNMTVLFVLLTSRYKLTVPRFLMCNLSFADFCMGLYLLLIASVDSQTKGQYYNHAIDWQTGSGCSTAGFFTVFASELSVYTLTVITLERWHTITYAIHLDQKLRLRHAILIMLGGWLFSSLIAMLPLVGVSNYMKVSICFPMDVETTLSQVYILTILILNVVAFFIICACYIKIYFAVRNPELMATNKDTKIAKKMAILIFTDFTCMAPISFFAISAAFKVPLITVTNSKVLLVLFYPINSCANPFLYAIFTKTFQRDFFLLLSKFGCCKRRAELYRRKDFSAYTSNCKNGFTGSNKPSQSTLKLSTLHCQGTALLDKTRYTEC

Gluc-LHCGR^Glu354Lys (human), sequence (P22888 27-699 E354K): as the sequence (P22888 27-699 I152T) above, with T126I, E328K counted along it
Gluc-LHCGRv4 (Gaussia luciferase fused to the N-terminus of the luteinizing hormone/chorionic gonadotropin receptor) (human), sequence (P22888 27-699): as the sequence (P22888 27-699 I152T) above, with T126I counted along it
Gluc-LHCGR^Cys131Arg (human), sequence (P22888 27-699 C131R): as the sequence (P22888 27-699 I152T) above, with C105R, T126I counted along it

acceptor:donor (BRET) ratio, fold lower than equimolar yhCG^WT-eGFP [1]	acceptor:donor (BRET) ratio, fold lower than Gluc-LHCGR^WT [2]	acceptor:donor (BRET) ratio, fold lower than Gluc-LHCGR^WT [3]	acceptor:donor (BRET) ratio, fold lower than Gluc-LHCGR^WT [4]	Substance
4.6 fold lower	–	–	–	yhCG^Glu80Ala-eGFP (yoked human chorionic gonadotropin with CGA Glu80Ala, fused to eGFP) (ligand)
–	5.5 fold lower	2.6 fold lower	5.1 fold lower	yhCG^WT-eGFP (yoked human chorionic gonadotropin fused to eGFP) (ligand)
